From the supplement of paper PMC7125110
± gives the standard error. For some assays here: This sample holds only a part of the variants without activity.

B1: glmS ribozyme (parent)
chain: AUAAAAGCGCCAGAACUACAGAAAUGUAGUUGACGAGGAGGAGGUUUAUCGAAUUUUCGGCGGAUGCCUCCAAA

Legend:
Details in all cases: with glucosamine-6-phosphate
glucosamine-6-phosphate [1] = variants of: B1; experiment: kcat; higher = faster cleavage; RNA array
How it was run: (§1)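 Tracking of barcoded ribozyme variants used a hybridised Cy3 probe at 37 °C, after in situ transcription by E. coli RNA polymerase on sequenced MiSeq chips. The flowed solution held 40 μM to 10 mM glucosamine-6-phosphate in HEPES/KCl/Mg(OAc)2 buffer, and imaging ran over ~14 h. kobs was taken from exponential decay fits of normalised per-tile medians, and kcat and KM from weighted Michaelis–Menten fits.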

glucosamine-6-phosphate [2] = variants of: B1; experiment: KM; higher = weaker cofactor use; RNA array
How it was run: as §1

glucosamine-6-phosphate [3] = variants of: B1; experiment: self-cleavage kobs at 640 uM GlcN6P; higher = faster cleavage; RNA array
How it was run: as §1

glucosamine-6-phosphate [4] = variants of: B1; experiment: self-cleavage kobs at 2500 uM GlcN6P; higher = faster cleavage; RNA array
How it was run: as §1

glucosamine-6-phosphate [5] = variants of: B1; experiment: self-cleavage kobs at 10000 uM GlcN6P; higher = faster cleavage; RNA array
How it was run: as §1

glucosamine-6-phosphate [6] = variants of: B1; experiment: self-cleavage kobs at 160 uM GlcN6P; higher = faster cleavage; RNA array
How it was run: as §1

glucosamine-6-phosphate [7] = variants of: B1; experiment: self-cleavage kobs at 40 uM GlcN6P; higher = faster cleavage; RNA array
How it was run: as §1

Row | Variant | kcat (glucosamine-6-phosphate [1]) [s⁻¹] | KM (glucosamine-6-phosphate [2]) [mM] | self-cleavage kobs at 640 uM GlcN6P (glucosamine-6-phosphate [3]) [s⁻¹] | self-cleavage kobs at 2500 uM GlcN6P (glucosamine-6-phosphate [4]) [s⁻¹] | self-cleavage kobs at 10000 uM GlcN6P (glucosamine-6-phosphate [5]) [s⁻¹] | self-cleavage kobs at 160 uM GlcN6P (glucosamine-6-phosphate [6]) [s⁻¹] | self-cleavage kobs at 40 uM GlcN6P (glucosamine-6-phosphate [7]) [s⁻¹]
1 | AUAAAAGCGCCAGAACUACAGAAAUGUAGUUGACGAGGAGGAGGUUUAUCGUAUUGUCGGCGGAUGCCUCCAAA [A52U U56G] | 0.000175 ± 4.1e-05 | 5.09 ± 2 | 2.83e-05 ± 1.1e-05 | 5.36e-05 ± 9.7e-06 | 0.000122 ± 2.5e-05 | – | –
2 | AUAAAAGCGCCAGAACUACAGAAAUGUAGUUGACGAGGAGGAGGUUUAUCGUAGUUUCGGCGGAUGCCUCCAAA [A52U U54G] | 0.000276 ± 3.6e-05 | 3.75 ± 0.86 | 4.52e-05 ± 9.2e-06 | 0.000107 ± 1e-05 | 0.000207 ± 2.8e-05 | – | –
3 | AUAAAAGCGCCAGAACUACAGAAAUGUAGUUGACGAGGAGGAGGUUUAUCGUAUUUUCGGCGGAUGCCUACAAA [A52U C70A] | 5.6e-05 ± 1.2e-05 | – | 3.63e-05 ± 1.3e-05 | 8.32e-05 ± 1.6e-05 | 4.7e-05 ± 1e-05 | 3.06e-05 ± 1.5e-05 | –
4 | AUAAAAGCGCCAGAACUACAGAAAUGUAGUUGACGAGGAGGAGGUUUAUCGUAUUUUCGGCGGAUGCCUUCAAA [A52U C70U] | 0.00063 ± 0.0001 | 3.49 ± 1.1 | 0.000122 ± 2e-05 | 0.000228 ± 3.4e-05 | 0.000483 ± 4.7e-05 | – | –
5 | AUAAAAGCGCCAGAACUACAGAAAUGUAGUUGACGAGGAGGAGGUUUAUCGUAUUUUCGGCGGAUGCCCCCAAA [A52U U69C] | 0.000239 ± 2.7e-05 | 1.99 ± 0.54 | 5.38e-05 ± 2.2e-05 | 0.000152 ± 3.9e-05 | 0.000191 ± 4.2e-05 | – | –
6 | AUAAAAGCGCCAGAACUACAGAAAUGUAGUUGACGAGGAGGAGGUUUAUCGUAUUUUCGGCGGAUGCUUCCAAA [A52U C68U] | 0.000287 ± 4.1e-06 | 2.08 ± 0.062 | 6.72e-05 ± 8.8e-06 | 0.000158 ± 1.4e-05 | 0.000236 ± 2.4e-05 | 1.96e-05 ± 8.9e-06 | –
7 | AUAAAAGCGCCAGAACUACAGAAAUGUAGUUGACGAGGAGGAGGUUUAUCGUAUUUUCGGCGGAGGCCUCCAAA [A52U U65G] | 9.59e-05 ± 1.1e-06 | 9.46 ± 0.18 | – | – | 4.93e-05 ± 1.8e-05 | < 1e-05 | < 1e-05
8 | AUAAAAGCGCCAGAACUACAGAAAUGUAGUUGACGAGGAGGAGGUUUAUCGUAUGUUCGGCGGAUGCCUCCAAA [A52U U55G] | 0.000246 ± 4.9e-05 | 2.15 ± 0.98 | 7.12e-05 ± 1.2e-05 | 0.000109 ± 1.5e-05 | 0.000221 ± 2.4e-05 | – | –
